What was measured:
Details in all cases: remark: other sources report otherwise
[1] = molecular target: hMPV A F WT Control (hMPV A), Q6WB98; assay: BLI, no stress
hMPV078 (hMPV A), Q6WB98 [2] = assay: BLI, no stress
hMPV079 (hMPV A), Q6WB98 [3] = assay: BLI, no stress
hMPV081 (hMPV A), Q6WB98 = assay: BLI, no stress
hMPV082 (hMPV A), Q6WB98 [4] = assay: BLI, no stress
hMPV083 (hMPV A), Q6WB98 [5] = assay: BLI, no stress
hMPV084 (hMPV A), Q6WB98 [6] = assay: BLI, no stress
hMPV085 (hMPV A), Q6WB98 = assay: BLI, no stress
hMPV086 (hMPV A), Q6WB98 [7] = assay: BLI, no stress
hMPV087 (hMPV A), Q6WB98 [8] = assay: BLI, no stress
hMPV088 (hMPV A), Q6WB98 [9] = assay: BLI, no stress
hMPV089 (hMPV A), Q6WB98 [10] = assay: BLI, no stress
hMPV090 (hMPV A), Q6WB98 = assay: BLI, no stress
hMPV097 (hMPV A), Q6WB98 [11] = assay: BLI, no stress
[12] = molecular target: hMPV A F WT Control (hMPV A), Q6WB98; assay: BLI, 50C stress
hMPV043 (hMPV A), Q6WB98 = assay: BLI, 50C stress
hMPV044 (hMPV A), Q6WB98 = assay: BLI, 50C stress
hMPV045 (hMPV A), Q6WB98 = assay: BLI, 50C stress
hMPV047 (hMPV A), Q6WB98 = assay: BLI, 50C stress
hMPV048 (hMPV A), Q6WB98 = assay: BLI, 50C stress
hMPV050 (hMPV A), Q6WB98 = assay: BLI, 50C stress
hMPV053 (hMPV A), Q6WB98 = assay: BLI, 50C stress
hMPV054 (hMPV A), Q6WB98 = assay: BLI, 50C stress
hMPV055 (hMPV A), Q6WB98 = assay: BLI, 50C stress
hMPV058 (hMPV A), Q6WB98 = assay: BLI, 50C stress
hMPV061 (hMPV A), Q6WB98 = assay: BLI, 50C stress
hMPV063 (hMPV A), Q6WB98 = assay: BLI, 50C stress
hMPV066 (hMPV A), Q6WB98 = assay: BLI, 50C stress
hMPV068 (hMPV A), Q6WB98 = assay: BLI, 50C stress
hMPV069 (hMPV A), Q6WB98 = assay: BLI, 50C stress
hMPV071 (hMPV A), Q6WB98 = assay: BLI, 50C stress
hMPV077 (hMPV A), Q6WB98 = assay: BLI, 50C stress
[13] = molecular target: hMPV A F WT Control (hMPV A), Q6WB98; assay: BLI, 53C stress
hMPV080 (hMPV A), Q6WB98 = assay: BLI, 53C stress
hMPV078 (hMPV A), Q6WB98 [14] = assay: BLI, 58C stress
hMPV079 (hMPV A), Q6WB98 [15] = assay: BLI, 58C stress
hMPV082 (hMPV A), Q6WB98 [16] = assay: BLI, 58C stress
hMPV083 (hMPV A), Q6WB98 [17] = assay: BLI, 58C stress
hMPV084 (hMPV A), Q6WB98 [18] = assay: BLI, 58C stress
hMPV086 (hMPV A), Q6WB98 [19] = assay: BLI, 58C stress
hMPV087 (hMPV A), Q6WB98 [20] = assay: BLI, 58C stress
hMPV088 (hMPV A), Q6WB98 [21] = assay: BLI, 58C stress
hMPV089 (hMPV A), Q6WB98 [22] = assay: BLI, 58C stress
hMPV097 (hMPV A), Q6WB98 [23] = assay: BLI, 58C stress

B1: MPE8 mAb (antibody, V domains shown)
VH: EVQLVESGGGLVKPGGSLRLSCAASGFTFSSYSMNWVRQAPGKGLEWVSSISASSSYSDYADSAKGRFTISRDNAKTSLFLQMNSLRAEDTAIYFCARARATGYSSITPYFDIWGQGTLVTVSS
VL: QSVVTQTPSVSGAPGQRVTISCTGSSSNIGAGYDVHWYQQLPGTAPKLLIYDNNNRPSGVPDRFSASKSGTSASLAITGLQAEDEADYYCQSYDRNLSGVFGTGTKVTVL
B1 showed a Response Shift [1] of 0.926 nm, a Response Shift (hMPV078 (hMPV A), Q6WB98 [2]) of 0.955 nm and a Response Shift (hMPV079 (hMPV A), Q6WB98 [3]) of 0.887 nm. The Response Shift (hMPV081 (hMPV A), Q6WB98) was 0.955 nm, the Response Shift (hMPV082 (hMPV A), Q6WB98 [4]) was 0.949 nm and the Response Shift (hMPV083 (hMPV A), Q6WB98 [5]) was 0.805 nm. The Response Shift (hMPV084 (hMPV A), Q6WB98 [6]) was 0.924 nm, the Response Shift (hMPV085 (hMPV A), Q6WB98) was 0.877 nm and the Response Shift (hMPV086 (hMPV A), Q6WB98 [7]) was 0.834 nm. The Response Shift (hMPV087 (hMPV A), Q6WB98 [8]) was 0.979 nm, the Response Shift (hMPV088 (hMPV A), Q6WB98 [9]) was 0.974 nm and the Response Shift (hMPV089 (hMPV A), Q6WB98 [10]) was 0.959 nm. For the same binder, the Response Shift (hMPV090 (hMPV A), Q6WB98) was 0.903 nm, the Response Shift (hMPV097 (hMPV A), Q6WB98 [11]) was 0.918 nm and the Response Shift [12] was 0.174 nm. The Response Shift (hMPV043 (hMPV A), Q6WB98) was 0.501 nm, the Response Shift (hMPV044 (hMPV A), Q6WB98) was 0.722 nm and the Response Shift (hMPV045 (hMPV A), Q6WB98) was 0.139 nm. It also gave a Response Shift (hMPV047 (hMPV A), Q6WB98) of -0.024 nm, a Response Shift (hMPV048 (hMPV A), Q6WB98) of 0.377 nm and a Response Shift (hMPV050 (hMPV A), Q6WB98) of 0.14 nm. For the same binder, the Response Shift (hMPV053 (hMPV A), Q6WB98) was 0.422 nm, the Response Shift (hMPV054 (hMPV A), Q6WB98) was 0.381 nm and the Response Shift (hMPV055 (hMPV A), Q6WB98) was 0.098 nm. It also gave a Response Shift (hMPV058 (hMPV A), Q6WB98) of 0.403 nm, a Response Shift (hMPV061 (hMPV A), Q6WB98) of 0.537 nm and a Response Shift (hMPV063 (hMPV A), Q6WB98) of 0.57 nm. The Response Shift (hMPV066 (hMPV A), Q6WB98) was 0.666 nm, the Response Shift (hMPV068 (hMPV A), Q6WB98) was 0.194 nm and the Response Shift (hMPV069 (hMPV A), Q6WB98) was 0.355 nm. The Response Shift (hMPV071 (hMPV A), Q6WB98) was 0.671 nm, the Response Shift (hMPV077 (hMPV A), Q6WB98) was 0.472 nm and the Response Shift [13] was 0.037 nm. The Response Shift (hMPV080 (hMPV A), Q6WB98) was 0.798 nm, the Response Shift (hMPV078 (hMPV A), Q6WB98 [14]) was 0.939 nm and the Response Shift (hMPV079 (hMPV A), Q6WB98 [15]) was 0.867 nm. The Response Shift (hMPV082 (hMPV A), Q6WB98 [16]) was 0.928 nm, the Response Shift (hMPV083 (hMPV A), Q6WB98 [17]) was 0.768 nm and the Response Shift (hMPV084 (hMPV A), Q6WB98 [18]) was 0.665 nm. It also gave a Response Shift (hMPV086 (hMPV A), Q6WB98 [19]) of 0.736 nm, a Response Shift (hMPV087 (hMPV A), Q6WB98 [20]) of 0.805 nm and a Response Shift (hMPV088 (hMPV A), Q6WB98 [21]) of 0.812 nm. The Response Shift (hMPV089 (hMPV A), Q6WB98 [22]) was 0.917 nm and the Response Shift (hMPV097 (hMPV A), Q6WB98 [23]) was 0.918 nm.

— US20240252614A1
